Measurements from PMC11098961.

Biological target: PME-1 (UniProt Q9Y570)
Experiment: FLAG-PP2Ac immunoprecipitation, PME-1 blot
Conditions: reference: wild type

Substance | binding against the reference (sites S285) | binding against the reference (sites S225,T227)
PP2Ac (from UniProt P67775) S285A | weaker | –
PP2Ac (from UniProt P67775) S225A/T227A | – | weaker
